Experimental data reported in the supplement of paper PMC9170038.

Tested on: MS2 coat protein
Test: apparent KD of MS2 coat protein; designed switch direction (-1 OFF switch, 1 ON switch): -1; higher = weaker reporter binding
Summary of the method: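 Each step of the titration lasted 0.8–1.5 h at the lowest concentration and 10–20 min at the highest. The protein, SNAP-549-labelled MS2 coat protein, went from 0.7 or 1.5 nM doubling to 3 µM over RNA switches transcribed on Illumina chips by stalled E. coli RNA polymerase. Normalised cluster fluorescence was curve-fitted, and the per-design median over clusters is given as apparent KD.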

[1] = input ligand: microRNA oligo, concentration not stated
[2] = Eterna round: R95, input ligand: microRNA oligo, concentration not stated
[3] = Eterna round: R95, input ligand: FMN 200 uM
[4] = Eterna round: R95, input ligand: none

Row | Sequence | apparent KD of MS2 coat protein [1] [nM] | apparent KD of MS2 coat protein [2] [nM] | apparent KD of MS2 coat protein (input ligand: FMN 200 uM) [nM] | apparent KD of MS2 coat protein (input ligand: none) [nM] | apparent KD of MS2 coat protein [3] [nM] | apparent KD of MS2 coat protein [4] [nM]
1 | ACAUGAGGAUCACCCAUGUGAAAAGAAUGGCUGACACAGAGAUAGGAUAUAUGUGCAUAUCUAACGUAGAAGGGUCAUGACUGG [Deportation 78 - Jieux - Exclusion NG 3] (Eterna round: R96, puzzle: Exclusion NG 3) | 26.5 | – | – | – | – | –
2 | CAGGUUAGAGGAUAUACGUAGGUACAGAUCUGUGUGUUCCUACAUGAGGAUCACCCAUGUAGAAGGCUAUCCUG [LRO-Excl2-09] (puzzle: Exclusion 2) | – | 61.9 | – | – | – | –
3 | AGCUAGAUAGGAUAUGCCCGGGAUAACAUGAGGAUCACCCAUGUGACCGAAUCAUGUCCAGCAGAAGGGUUUGGGA [Mod of ViennaUCT 9 - Jieux - Exclusion 5] (Eterna round: R97, puzzle: Exclusion 5) | – | – | 34.7 | 23.3 | – | –
4 | GGAGGUGAGGUAAGGAUAUCCUCCUCGAAAGAGGAGGAGAAGGUACAUGAGGAUCACCCAUGUAAGGAAGGAGG [AK-MS2ROC-r4-Bmoexclusion4-11] (Eterna round: R97, puzzle: Brourd's mod of Exclusion 4) | – | – | 152 | 54.2 | – | –
5 | GCCCGGCCUGUAGGAUAUGGUUCCGUUUCGGUUCCAGAAGGACACGAGGAUACAUGAGGAUCACCCAUGUGCUCGUCACCGGGC [salish99_ExNG1_r04_403] (Eterna round: R96, puzzle: Exclusion NG 1) | 8.6 | – | 8.67 | 11.3 | – | –
6 | AGCUCUGCAGGAUAUGCCCGGGAUAACAUGAGGAUCACCCAUGUGACUGAUUGUUAUUCUGCAGAAGGGCAUGGGA [JL-EX5-4.15 ViennaUCT mod] (Eterna round: R97, puzzle: Exclusion 5) | – | – | 409 | 637 | – | –
7 | AAAUACAAGCAGAGAUCCUACAUGAGGAUCACCCAUGUGCUCGUCUUAUAAAGUACUAUCACGAAAGUGAUAGUACA [Sensor 3, v1 - 17] (puzzle: Sensor v3, turn-off variant 1) | – | 41.8 | – | – | 184 | 218
8 | AUGAGGUUAGGAUAUACAUGAGGAUCACCCAUGUUGGAGAAGGAAAUGUAAGUAGCGAGUAGAAGGAACGGAGC [JR_Exclu3_Sub059] (Eterna round: R96, puzzle: Exclusion 3) | 40.4 | – | 48.6 | 49 | – | –
9 | AAAUUGGUAGAGGAUAUCGCACAGGAAACACUGCGAGAAGGCUGCACAUGAGGAUCACCCAUGUUUAGUUGCGA [EX6 #37] (Eterna round: R97, puzzle: Exclusion 6) | – | – | 22.5 | 16.6 | – | –
10 | UGCCUAAGAGGAUAUACAUAGAAAUAGAUUCAUGUAAAACUACAUGAGGAUCACCCAUGUAGAAGGCUUGGGCU [Mat - Exclusion 2 - JL Mod - D54] (Eterna round: R97, puzzle: Exclusion 2) | – | – | 155 | 27.6 | – | –
11 | GGUGCGUAUGUGAGGAUAUGCUGGUCCUUGGAUCAGCAGAAGGCACAUGAGGAUCACCCAUGUGGUGUCGUACG [salish99_Bmod_Ex4_012] (puzzle: Brourd's mod of Exclusion 4) | – | 54.6 | – | – | – | –
12 | UAUAUAUAGUAAGGAUAUGUAUUAAUUUUACAAACAGAAGGUACUGACAUGAGGAUCACCCAUGUUUUAGUGUGGGCAUGUAGA [JMF's solution 89] (Eterna round: R96, puzzle: Exclusion NG 1) | 45.9 | – | – | – | – | –
13 | CCCUCACAUGAGGAUCACCCAUGUCAGGAUAUUCGACGGUAAAUUGGCCGUCUUAAAGGAAGAAGGGACGUAAC [Lesoorxe] (puzzle: Exclusion 1) | – | 13 | – | – | – | –
14 | UGCAGACGAGGAUAUAGAUUUAGAUACAUGAGGAUCACCCAUGUAUACAUGUAUUUAGAUUUAGAAGGCGUCUGCA [E5/14-A2] (Eterna round: R97, puzzle: Exclusion 5) | – | – | 422 | 886 | – | –
15 | UUAUAUAGAGUGAGGAUAUGCUGGUCCUUGGAUCAGCAGAAGGCACAUGAGGAUCACCCAUGUAAAAUAAUAUU [Mat - Exclusion 4 - JL Mod - D39] (puzzle: Brourd's mod of Exclusion 4) | – | 21.1 | – | – | – | –
16 | CAGUACUGAGGAUAUACAUGAGGAUCACCCAUGUGAUUCAGUGCACGCGUACGUGUACGUAGAAGGCAGUACUG [JL 3.27 m2] (Eterna round: R97, puzzle: Exclusion 3) | – | – | 761 | 49 | – | –

Row | Sequence | apparent KD of MS2 coat protein [1] [nM] | apparent KD of MS2 coat protein [2] [nM] | apparent KD of MS2 coat protein (input ligand: FMN 200 uM) [nM] | apparent KD of MS2 coat protein (input ligand: none) [nM] | apparent KD of MS2 coat protein [3] [nM] | apparent KD of MS2 coat protein [4] [nM]
17 | UUGAAACAUACCUCCAUAAACAUGAGGAUCACCCAUGUAAGUGAGGAUAUAGAUUGAUUAGUAUACUAGAAGGCACUUAGAUAU [JR_ExcNG3_Sub043] (Eterna round: R96, puzzle: Exclusion NG 3) | 10.8 | – | 10.4 | 10.5 | – | –
18 | GGAAGGCGAGGAUAUACAAUAAAGAAAGCGAAAGACAUGAAACAUGAGGAUCACCCAUGUAGAAGGCGCGGAGA [AK-MS2ROC-r4-exclusion2-9] (Eterna round: R97, puzzle: Exclusion 2) | – | – | 16.5 | 13.8 | – | –
19 | AGGUGCCUCUGGAAACAUGAGGAUCACCCAUGUUGAGUUAGCGAGGAUAUCGGUAACCAUUGUUAUGAGAAGGCGCAAACCAGA [Ex NG3 #38] (Eterna round: R96, puzzle: Exclusion NG 3) | 19.6 | – | 60.7 | 27.6 | – | –
20 | UGUGUGAGACAGGAUAUGCCAGAUAUAUUACUGGUAGAAGGGUCUACAUGAGGAUCACCCAUGUGGCCGGCCGG [Ex6 #85] (Eterna round: R97, puzzle: Exclusion 6) | – | – | 65.3 | 28.5 | – | –
21 | CCUCGACAUGAGGAUCACCCAUGUCAGGAUAUUGUGUAUCGGGUUUUUUACCGAAAGGCGAGAAGGGAUGUGUG [LRO-Excl1-11] (puzzle: Exclusion 1) | – | 15 | – | – | – | –
22 | GUAAAACAUGUAGGAUAUGCGUGGCAAAGCUAUGCAGAAGGACAUGAGGAUCACCCAUGUUAAAGCGUCUGCGUACAGAUGCAA [Mat - Exclusion NG 1 - Mod of JL - D95] (Eterna round: R96, puzzle: Exclusion NG 1) | 30.5 | – | 143 | 30.7 | – | –
23 | AACUCCUCAGGAUAUCUGAAAAUGGACAUGAGGAUCACCCAUGUGAAAGUCACAUCCGGAGGAGAAGGGAGGAGAA [Diororlera] (Eterna round: R97, puzzle: Exclusion 5) | – | – | 44.6 | 16 | – | –
24 | CAUACACAUGAGGAUCACCCAUGUGAGGAUAUGCGUACGUUGUCCGUAGGCGACGUGCGCAGAAGGCGCAUGAG [JL-ex1-3.13 Eli mod] (puzzle: Exclusion 1) | – | 90.9 | – | – | 27.6 | 91.6
25 | AGUCCUGGAGUUAGGAUAUGGUGUAUCGCUGCGCUUCAGAAGGGACUUGAGGAUCACCCAAGUAGCCGUGAGGG [salish99_bmod_ex4_r4_007] (Eterna round: R97, puzzle: Brourd's mod of Exclusion 4) | – | – | 49.9 | 60.2 | – | –
26 | ACUUAUUGAGGAUAUACAUUAAAUUACAUGAGGAUCACCCAUGUUCUUCAAUGUAUAUAUGCAGAAGGCAGAAGAA [JL-ex5-4.28 Malcolm mod] (Eterna round: R97, puzzle: Exclusion 5) | – | – | 13.4 | 12.8 | – | –
27 | AAUGUCUGAGGAUAUCGAUUAGUGUACAUGAGGAUCACCCAUGUUUUUAUUUGUAUAUUACGAGAAGGCAGUGGAA [JR_E5_Sub087] (puzzle: Exclusion 5) | – | 19.1 | – | – | 20.6 | 17.2
28 | AAGCACCAUGUGAGGAUAUGCCACGGAACCGAUGGGCAGAAGGCACAUGAGGAUCACCCAUGUGACCGGUGGAU [Eternabot (Original) Solution 48] (Eterna round: R97, puzzle: Brourd's mod of Exclusion 4) | – | – | 236 | 44.6 | – | –
29 | GUGGGUCCUCACGGUGCUACAUGAGGAUCACCCAUGUGGAUUGAGGAUAUCGUAACCCUACGGGACGAGAAGGCAGUUUACUGU [Ex NG3 #100] (Eterna round: R96, puzzle: Exclusion NG 3) | 14.7 | – | 48.5 | 23.1 | – | –
30 | UACUAAAAGGAGGAUAUCGUAUCGGAAACGAUACGAGAAGGCUUAACAUGAGGAUCACCCAUGUUCUUCAAUAA [Mat - Exclusion 6 - Eli Mod - D88] (puzzle: Exclusion 6) | – | 17.3 | – | – | 24.6 | 16.4
31 | AAUUUACAUGAGGAUCACCCAUGUCAGGAUAUGGUUUUAUUUUUUUUUUUUUUUUAUUCCAGAAGGGACAGUUA (puzzle: Exclusion 1) | – | 17 | – | – | 24.2 | 14.8
